Values belong to the binder of their own block, whether it stands above or below them.
Tests used:
[1] = target: T1, human-derived recombinant HMGB1 (expressed in Sf9 cells) (human, UniProt P09429 1-215, limits assumed); assay: competition ELISA, inhibition of HMGB1 binding to immobilized RAGE-Fc
T1 construct: Purified from baculovirus-infected Sf9 cells on Ni-NTA; also called Sf6-expressed recombinant human HMGB1; Sf6-derived recombinant HMGB1
T1 sequence (looked up): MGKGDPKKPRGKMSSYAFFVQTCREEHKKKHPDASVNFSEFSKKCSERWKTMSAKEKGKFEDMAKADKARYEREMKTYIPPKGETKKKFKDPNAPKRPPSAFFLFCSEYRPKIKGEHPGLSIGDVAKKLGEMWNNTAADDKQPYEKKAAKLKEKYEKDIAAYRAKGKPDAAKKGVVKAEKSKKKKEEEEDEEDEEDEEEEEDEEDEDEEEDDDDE
Procedure: RAGE-Fc (R&D, 250 ng/well) was immobilized overnight at 4° C. on immunoplates (Nunc, Maxisorp) and 5% BSA (bovine serum albumin) was added thereto to block the plates for 2 hours, followed by addition of human monoclonal antibody (Control Ig) to block the plates for 2 hours. HMGB1 (Sf6-derived recombinant HMGB1, final concentration: 2 μg/ml) was mixed with anti-HMGB1 antibody (#10-22 chimera, EV007156 or G4) or non-HMGB1-specific human monoclonal antibody (Control Ig) serving as a negative control antibody at a final concentration of 0, 0.02, 0.2, 2 or 20 μg/ml and incubated for 60 minutes. Subsequently, the reaction solutions were added to the immunoplates and reacted for 2 hours. Then, anti-HMGB1 antibody (Abnova, #H00003146-M08, 1 μg/ml) which had been biotinylated with a Biotin Labeling Kit (Dojindo, LK03) was reacted at room temperature for 1 hour. Finally, HRP-labeled streptavidin was reacted at room temperature for 1 hour. TMB (3,3′,5,5′-tetramethylbenzidine; SureBlue, KPL, #52-00-03) was added and HMGB1 bound to RAGE was detected by absorbance at 450 nm (FIG. 10). #10-22 chimera, EV007156 and G4 were all found to inhibit the binding of HMGB1 to RAGE in a manner dependent on the added antibody concentration.

[2] = target: T2, HMGB1 C-terminal region synthetic peptide #9 EDEDEEEDDDDE; assay: dot blotting, peptide at 4 µg/spot, antibody at 1 µg/ml
T2 construct: Synthetic peptide (SIGMA-ALDRICH, PEPScreen), dotted at 4 µg/spot on nitrocellulose
T2 peptide: EDEDEEEDDDDE
Procedure: (§1) To identify the positions of amino acids where the epitope of EV007156 against HMGB1 was located from among those constituting the C-terminal end of HMGB1, peptide mapping was conducted. Namely, 9 types of 12-residue long amino acids at 3 residue intervals and the most C-terminal 8 residues, i.e., 10 peptides in total (#1. […] (SEQ ID NO: 51), #2. […] (SEQ ID NO: 52), #3. […] (SEQ ID NO: 53), #4. EEDEEEEEDEED (SEQ ID NO: 54), #5. DEEEEEDEEDED (SEQ ID NO: 55), #6. […] (SEQ ID NO: 56), #7. EEDEEDEDEEED (SEQ ID NO: 57), #8. […] (SEQ ID NO: 58), #9. […] (SEQ ID NO: 59), #10. […] (SEQ ID NO: 60)) were designed to cover all the amino acids constituting the C-terminal region of HMGB1. The peptides thus synthesized (SIGMA-ALDRICH, PEPScreen) were each dissolved at 4 mg/ml in a 0.1 M ammonium acetate solution and added dropwise at 4 μg/spot onto a nitrocellulose membrane. After drying, the membrane was blocked with 5% skimmed milk-TBST for 90 minutes. EV007156 was then reacted for 1 hour at a concentration of 1 μg/ml. Subsequently, HRP-labeled anti-human IgG antibody (MBL, #208) was reacted for 1 hour, followed by detection using ECL prime (GE Healthcare, RPN2232) (FIG. 18). […], and more particularly the most C-terminal 8 residues (#10. […] (SEQ ID NO: 60)).

[3] = target: T3, HMGB1 most C-terminal 8 residues synthetic peptide #10 EEEDDDDE; assay: as above
T3 construct: Synthetic peptide (SIGMA-ALDRICH, PEPScreen), dotted at 4 µg/spot on nitrocellulose
T3 peptide: EEEDDDDE
Procedure: as §1

- IC50 [1]: 3.04 µg/mL
B1: #10-22 chimeric antibody (antibody, human IgG1, lambda)
heavy: not shown
light: YELIQPPSASVTLGNTVSITCSGDELPKRYAYWYQQKPDKSIVRVIYKDSERPSGISDRFSGSSSGTTATLTIRDTQAEDEADYYCHSTYSDDKLPVFGGGTKLTVLGQPKAAPSVTLFPPSSEELQANKATLVCLISDFYPGAVTVAWKADSSPVKAGVETTTPSKQSNNKYAASSYLSLTPEQWKSHRSYSCQVTHEGSTVEKTVAPTECS
notes: Rat #10-22 variable regions with human IgG1(lambda) constant regions; also called #10-22 chimera

- binding result [2]: binds
- binding result [3]: binds
B2: #10-22 humanized antibody EV007156 (antibody, human IgG1, lambda, V domains shown)
VH: EVQLVESGGGLVQPGGSLKLSCAASGFTFSNAAMYWVRQASGKGLEWVARIRTKPNNYATYYADSVKGRFTISRDDSKNTAYLQMNSLKTEDTAVYYCTAPRRTEGIVSSGVDYWGQGTLVTVSS
VL: YELTQPPSVSVSPGQTASITCSGDELPKRYAYWYQQKPGQSIVRVIYKDSERPSGIPERFSGSSSGTTATLTISGTQAEDEADYYCHSTYSDDKLPVFGGGTKLTVLG
notes: also called EV007156H + EV007156L

Source: patent US20150361164A1 (EVEC, published 2015)
